Experimental data reported in the supplement of paper PMC9170038.

Tested on: MS2 coat protein
Experiment: apparent KD of MS2 coat protein; designed switch direction (-1 OFF switch, 1 ON switch): -1; higher = weaker reporter binding
In short: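 Apparent KD, taken as the median over clusters for each design, was obtained by curve-fitting normalised cluster fluorescence. Designed RNA switches had been transcribed on Illumina chips by stalled E. coli RNA polymerase and titrated with SNAP-549-labelled MS2 coat protein, doubling from 0.7 or 1.5 nM to 3 µM.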

[1] = Eterna round: R95, input ligand: microRNA oligo, concentration not stated
[2] = input ligand: microRNA oligo, concentration not stated
[3] = Eterna round: R95, input ligand: FMN 200 uM
[4] = Eterna round: R95, input ligand: none

Row | Sequence | apparent KD of MS2 coat protein [1] [nM] | apparent KD of MS2 coat protein (input ligand: FMN 200 uM) [nM] | apparent KD of MS2 coat protein (input ligand: none) [nM] | apparent KD of MS2 coat protein [2] [nM] | apparent KD of MS2 coat protein [3] [nM] | apparent KD of MS2 coat protein [4] [nM]
1 | CCUCCACAUGAGGAUCACCCAUGUCAGGAUAUCGUGUGCGCGUUUUCGGUCUUUCGCGCGAGAAGGGACGUCUG (puzzle: Exclusion 1) | 24 |  |  |  |  | 
2 | CGCUAUAGAGGAUAUACGAGAUCGAAAGAUCGGCGAUCCCUACAUGAGGAUCACCCAUGUAGAAGGCUAUAGCG [Mod 18 - Jieux - Exclusion 2] (Eterna round: R97, puzzle: Exclusion 2) |  | 83.3 | 15.7 |  |  | 
3 | CGUCGAAAUGUAGGAUAUCUGCACGUGUAGUGCAGAGAAGGACAUGAGGAUCACCCAUGUAGAUCACGACGAAUUAAUUUAAUU [ENG1/5-C3] (Eterna round: R96, puzzle: Exclusion NG 1) |  | 468 | 56.9 | 50.4 |  | 
4 | GCACGGAGUGUAGGAUAUCUGUGCGAUUAGCUCAGAGAAGGACACAUGAGGAUCACCCAUGUGUAACUCAAUACUCAUCCGUGC [Eli exng1 - 070] (Eterna round: R96, puzzle: Exclusion NG 1) |  | 8.06 | 13.9 | 9.18 |  | 
5 | AAGAACGUACAAGGAUAUCUCCACCACAACGGCAGAGAAGGUGUACAUGAGGAUCACCCAUGUGACCGAAGGCCCUUAUGGGCC [Xeerergeza] (Eterna round: R96, puzzle: Exclusion NG 1) |  | 79.8 | 29.6 | 20.6 |  | 
6 | UCAUGUAUGUAGGAUAUCGAUGUCCUUGGACAUCGAGAAGGACGUACAUGAGGAUCACCCAUGUAACUUGCAUG [Exclusion 6 - B - 11:d] (puzzle: Exclusion 6) | 18.7 |  |  |  |  | 
7 | CUAGCGAGUGUAGGAUAUCGGACUGUUUCAGUCUGAGAAGGACAUGAGGAUCACCCAUGUGUAGCUACGUGAGUAGCACGCUAG [JL ENG1 3.88] (Eterna round: R96, puzzle: Exclusion NG 1) |  | 40.2 | 22.3 | 15 |  | 
8 | UUUUUAUAUGAAGGAUAUACUUAACAUGAGGAUCACCCAUGUGGUGUUGUGAGUGAGUGAGUUUAGUAGAAGGUCAAUUAGUUU [JMF's solution 12] (Eterna round: R96, puzzle: Exclusion NG 2) |  | 363 | 209 | 157 |  | 
9 | GAGUACUGAGGAUAUACAUGAGGAUCACCCAUGUGUUCCAACUAGGAAUCUAGAGUAUGUAGAAGGCAGUGCUG [salish99_ex3_r4_704] (Eterna round: R97, puzzle: Exclusion 3) |  | 145 | 130 |  |  | 
10 | GGUCCACAUGAGGAUCACCCAUGUUAGGAUAUCUCCUGCCUCCUAAAUGGAAGCAGACAGAGAAGGAACAUCAA [Soanatra] (Eterna round: R96, puzzle: Exclusion 1) |  | 113 | 25.4 | 21.8 |  | 
11 | AGUAGGUCUACCUUGGUGGAUCUGCAUAAAGCAAGUGAUACAUGAGGAUCACCCAUGUCCUCAUUUGCUCGUCUUAU [JL turnoff v2 99.21] (puzzle: Sensor v3, turn-off variant 2) | 216 |  |  |  | 14 | 14.1
12 | AAAAGAGUAGGAUAUCUGACGCGAAACAUGAGGAUCACCCAUGUAGGGCGGUCCUGCUUAAGAGAAGGGCUCAAAU [Sodirira] (puzzle: Exclusion 5) | 88.9 |  |  |  |  | 
13 | ACUAGAUGAGGAUAUACACAUUUUAGUGUUCCUCUAGAUUAACAUGAGGAUCACCCAUGUAGAAGGCAUCAUUA [Exclusion 2 - 9] (puzzle: Exclusion 2) | 65 |  |  |  |  | 
14 | ACAUGUAAUGCAGGAUAUUUGACACAUGAGGAUCACCCAUGUGACCAGAGGAAUUGCUAUGAGUCGAAGAAGGGUAUGUACAUG [Ex NG2 #55] (Eterna round: R96, puzzle: Exclusion NG 2) |  | 56.2 | 42.9 | 44.7 |  | 
15 | GAAAGGGUAGGAUAUACGAAAAAAAAGGGUAGAAAAAAAACACAUGAGGAUCACCCAUGUAGAAGGACCAAAAG [salish99_ex2_r3_033] (puzzle: Exclusion 2) | 30.9 |  |  |  | 40.2 | 27.2
16 | AAUAGCAAGCAGAUCCUAAACAUGAGGAUCACCCAUGUGCUCGUCUUGUAAAGUACUAUCACGAAAGUGAUAGUACA [Sensor 3, v1 - 61] (puzzle: Sensor v3, turn-off variant 1) | 326 |  |  |  | 118 | 88.3
17 | GCUGCGCGAGGAUAUGCGGUUCGGGCGGUGGCCGCUGGCGGACAUGAGGAUCACCCAUGUAGAAGGCGUGCGGG [Apr-15 SS2-61] (puzzle: Exclusion 2) | 14.9 |  |  |  |  | 
18 | GCCGGGCGAGGAUAUACAUGGCGGGCGAAAGCCCGCGAUCUACAUGAGGAUCACCCAUGUAGAAGGCGCCCGGC [2nd Free energy optimized design] (Eterna round: R97, puzzle: Exclusion 2) |  | 567 | 49.3 |  |  | 
19 | GAGUGACAUGAGGAUCACCCAUGUAAGGAUAUACGGUUGGUAGAGAGAGGGCGAAAGGGUAGAAGGUACGAAGG [JR_Exclu1_Sub054] (puzzle: Exclusion 1) | 76 |  |  |  | 64.6 | 95.2
20 | AUACACUAGCGAGGAUAUUGGAAAGGAAGUGUACAAGAAGGCGCCCGUGGAAGGGUGAAACAUGAGGAUCACCCAUGUGAAUAA [PowerStrip EXNG 1.29] (Eterna round: R96, puzzle: Exclusion NG 1) |  | 151 | 66.1 | 96.2 |  | 
21 | CGUUGUAUAGGAUAUACAUGAGGAUCACCCAUGUGAAAUUAUAGUGAGGAAAUGAAAAGUAGAAGGGUAUGACA [Mod of Mat 7 - Jieux - Exclusion 3] (Eterna round: R97, puzzle: Exclusion 3) |  | 35.5 | 45.3 |  |  | 
22 | UAUAUAUAGUAAGGAUAUGUAUUAAUUUUAGAAACAGAAGGUACUGACAUGAGGAUCACCCAUGUUUUAGUGUGGGCAUGUAGA [JMF's solution 88] (Eterna round: R96, puzzle: Exclusion NG 1) |  |  |  | 75.7 |  | 
23 | UAGCAACGAGGAUAUGCGGGCCUGAACCUAAAGUCGACCUUACAUGAGGAUCACCCAUGUAGAAGGCGUAGUGU [Eternabot (L2) Solution 71] (Eterna round: R97, puzzle: Exclusion 2) |  | 16.8 | 18.3 |  |  | 
24 | CAGAGCAGACGGAGAUCCAACAUGAGGAUCACCCAUGUCUCAAAAGCUUUUUGCUCGUCUUAUCCUCCUCUGUUCAC [Esquitian 3] (Eterna round: R97, puzzle: Sensor, turn-off variant 1) |  | 26 | 30.4 |  |  | 
25 | ACCUUACUGGUCAGGAUAUACAGUCUCGGGUGGGUGUAGAAGGGACAUGAGGAUCACCCAUGUAGGUUGCAGCA [alecazam56] (Eterna round: R97, puzzle: Brourd's mod of Exclusion 4) |  | 100 | 156 |  |  | 
26 | CGGGACGUCCUGAUAAUAAGACAUGAGGAUCACCCAUGUCGGCAGGAUAUCAGUCCUUACGGUUUUGAGAAGGGUCGACAACCA [Birace] (Eterna round: R96, puzzle: Exclusion NG 3) |  | 14.1 | 13.4 | 8.27 |  | 
